In assay [1] the target is T1, human DLL4 overexpressed on cells (human, UniProt Q9NR61 27-685).
T1 construct: full length human DLL4 on CHO or HEK293 cells; also called CHO-hDLL4; CHO-hDII4
The experiment in a line: competitive FMAT, hNotch1-Fc on CHO-hDLL4.

Assay [2] concerns the target T2, human Jagged-1 (human, UniProt P78504 34-1067, limits assumed).
T2 construct: also called hJagged-1; hJAG1
The experiment in a line: binding ELISA on coated recombinant human Jagged-1, OD 405 nm. A digest of the protocol:
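Plates coated overnight at 4° C with 1 μg/mL ligand, blocked with 1% casein in PBS. VHH dilution series applied; bound VHH detected via mouse anti-myc then anti-mouse-AP conjugate.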

The target in assay [3] is T1, human DLL4 overexpressed on cells. The experiment in a line: FACS titration on HEK293-hDLL4 cells, MCF. A digest of the protocol: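 HEK293 cells overexpressing DLL4 (transient or stable) were incubated with VHH titrations for 30 min on ice. After washing, binding was detected with anti-c-myc-Alexa647 by flow cytometry, and the mean MCF was used to calculate EC50.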

Assay [4] has as its target T3, mouse DLL4 overexpressed on cells (mouse, UniProt Q9JI71 27-686).
T3 construct: whole, on cells; also called CHO-mDLL4; CHO-mDII4
The experiment in a line: competitive FMAT, hNotch1-Fc on CHO-mDLL4.

Assay [5] deals with T4, recombinant human DLL4 (human, UniProt Q9NR61 25-522).
T4 construct: also called rhDLL4; hDLL4
The assay is described as follows: competition ELISA, biot-hDLL4 to coated hNotch1-Fc. The text has this: Residual binding of biotinylated human DII4 is detected using horseradish peroxidase (HRP) conjugated extravidin (Sigma, St. Louis, Mo., USA) (FIG. 3 A-C). Human DII4 is biotinylated as described above.
Background: An ELISA detects its analyte on a solid surface through an enzyme-linked reagent.

For assay [6], the target named is T5, recombinant mouse DLL4 (C-terminally His-tagged extracellular domain, R&D Systems) (mouse, UniProt Q9JI71 27-532).
T5 construct: extracellular domain; also called rmDLL4; mDLL4
The assay is described as follows: binding ELISA on coated recombinant mouse DLL4 (Example 5.8, Example 7), OD 450 nm.

For assay [7], the target named is T6, human DLL1 (Alexis) (human, UniProt O00548 18-545, limits assumed).
T6 construct: also called hDLL1
T6 sequence (looked up): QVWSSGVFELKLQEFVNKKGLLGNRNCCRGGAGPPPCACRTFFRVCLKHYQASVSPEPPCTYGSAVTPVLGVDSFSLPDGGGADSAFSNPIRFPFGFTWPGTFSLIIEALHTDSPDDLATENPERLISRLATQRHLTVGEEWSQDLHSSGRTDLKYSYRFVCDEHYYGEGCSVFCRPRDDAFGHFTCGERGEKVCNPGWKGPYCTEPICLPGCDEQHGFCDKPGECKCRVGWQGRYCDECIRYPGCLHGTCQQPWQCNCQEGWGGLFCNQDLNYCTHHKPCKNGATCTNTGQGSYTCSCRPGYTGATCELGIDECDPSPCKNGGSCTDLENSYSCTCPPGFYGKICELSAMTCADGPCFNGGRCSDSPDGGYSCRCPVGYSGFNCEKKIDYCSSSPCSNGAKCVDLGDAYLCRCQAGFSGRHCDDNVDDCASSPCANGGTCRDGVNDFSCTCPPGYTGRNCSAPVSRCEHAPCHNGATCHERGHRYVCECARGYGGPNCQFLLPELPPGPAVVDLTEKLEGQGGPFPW
The experiment in a line: binding ELISA on coated human DLL1 (Example 5.8, Example 7), OD 450 nm.

The target in assay [8] is T7, recombinant human DLL4 (C-terminally His-tagged extracellular domain, R&D Systems) (human, UniProt Q9NR61 25-522, biotinylated in the competition ELISA).
T7 construct: also called rhDLL4; hDLL4
The assay is described as follows: ProteOn off-rate screen, periplasmic extract, coated human DLL4. As for the experimental part: In a first cycle, amino acid substitutions are introduced randomly in both framework (FW) and complementary determining regions (CDR) using the error-prone PCR method. […] After a polish step, PCR products are inserted via unique restriction sites into a vector designed to facilitate phage display of the VHH library. Consecutive rounds of in-solution selections are performed using decreasing concentrations of biotinylated recombinant human DLL4 (biot-rhDLL4) and trypsin elutions. Affinity-driven selections in a third round using cold rhDLL4 (at least 100× excess over biot-rhDLL4) are also performed. No selections on murine DLL4 are included as (conservation of) cross-reactivity is assessed at the screening level. Individual mutants are produced as recombinant protein using an expression vector derived from pUC119, which contains the LacZ promoter, a resistance gene for ampicillin, a multiple cloning site and an ompA leader sequence (pAX50). E. coliTG1 cells are transformed with the expression vector library and plated on agar plates (LB+Amp+2% glucose). Single colonies are picked from the agar plates and grown in 1 mL 96-deep-well plates. VHH expression is induced by adding IPTG (1 mM). Periplasmic extracts (in a volume of ˜80 uL) are prepared according to standard methods and screened for binding to recombinant human and mouse DII4 in a ProteOn (BioRad, Hercules, Calif., USA) off-rate assay. In brief, a GLC ProteOn Sensor chip is coated with recombinant human DII4 on the “ligand channels” L2 and L4 (with L1/L3 as reference channel), while “ligand channels” […] is coated with mouse DII4. Periplasmic extract of affinity-matured clones is diluted 1/10 and injected across the “analyte channels” A1-A6. An average off-rate is calculated of the wild type clones present in the plate and served as a reference to calculate off-rate improvements.

Assay [9] addresses T6, human DLL1 (Alexis). The assay is described as follows: binding ELISA on coated human DLL1 (Example 5.8, Example 7), OD 450 nm. The source holds these as a separate data set.
Assay [10] addresses T5, recombinant mouse DLL4 (C-terminally …). The experiment in a line: binding ELISA on coated recombinant mouse DLL4 (Example 5.8, Example 7), OD 450 nm. This is another data set of the same source.

Where two headings read alike, the source gives them in different places.

T3 sequence (Q9JI71 27-686): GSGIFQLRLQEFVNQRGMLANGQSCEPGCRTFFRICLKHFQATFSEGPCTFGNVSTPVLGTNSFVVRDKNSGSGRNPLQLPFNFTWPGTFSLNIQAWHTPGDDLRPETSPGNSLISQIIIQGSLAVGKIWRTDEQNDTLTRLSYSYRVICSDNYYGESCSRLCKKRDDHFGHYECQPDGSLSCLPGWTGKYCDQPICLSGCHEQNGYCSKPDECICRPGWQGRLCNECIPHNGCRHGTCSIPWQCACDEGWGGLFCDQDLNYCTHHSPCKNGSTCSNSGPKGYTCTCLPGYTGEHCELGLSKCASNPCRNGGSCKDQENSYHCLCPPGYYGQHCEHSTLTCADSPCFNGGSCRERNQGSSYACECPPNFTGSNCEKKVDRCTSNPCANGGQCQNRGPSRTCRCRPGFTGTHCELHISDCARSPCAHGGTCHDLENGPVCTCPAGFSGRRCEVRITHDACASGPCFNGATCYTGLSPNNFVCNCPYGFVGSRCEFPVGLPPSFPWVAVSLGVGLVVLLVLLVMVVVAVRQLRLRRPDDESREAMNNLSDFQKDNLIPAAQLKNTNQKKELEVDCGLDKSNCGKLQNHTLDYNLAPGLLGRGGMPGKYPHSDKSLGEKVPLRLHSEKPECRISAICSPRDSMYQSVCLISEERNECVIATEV
T5 sequence (Q9JI71 27-532): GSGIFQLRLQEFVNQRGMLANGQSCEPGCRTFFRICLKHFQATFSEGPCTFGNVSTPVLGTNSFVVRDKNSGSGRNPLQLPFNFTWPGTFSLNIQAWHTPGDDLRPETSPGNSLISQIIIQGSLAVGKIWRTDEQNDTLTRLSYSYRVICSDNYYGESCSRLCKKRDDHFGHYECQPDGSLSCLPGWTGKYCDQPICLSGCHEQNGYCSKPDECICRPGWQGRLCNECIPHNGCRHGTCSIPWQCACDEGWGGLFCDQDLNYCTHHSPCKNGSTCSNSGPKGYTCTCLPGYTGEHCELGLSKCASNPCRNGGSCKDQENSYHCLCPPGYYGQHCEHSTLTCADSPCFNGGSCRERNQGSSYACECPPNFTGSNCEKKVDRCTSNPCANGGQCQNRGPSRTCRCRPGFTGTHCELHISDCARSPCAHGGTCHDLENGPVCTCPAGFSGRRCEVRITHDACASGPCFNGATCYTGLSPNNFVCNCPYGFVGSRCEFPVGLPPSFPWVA

B1: DLLBII56A09 (VHH)
VHH: EVQLVESGGGLVQPGGSLRLSCAASGFTFDDYAIGWFRQAPGKEPEGISCISSSGGITYYADSVKGRFTTSRDNAKNTVYLQMNSLKPEDTAVYYCATPGIAACRGIHYTGQGTQVTVSS
notes: also called 56A9; DLLBII56A9
In general, IC50 refers to the concentration at which inhibition is half-maximal. What is called EC50 (read off the curve) is the concentration giving half of the maximal effect. As for B1, the IC50 was found to be 10.6 nM in [1], 15 nM in assay [4] and 4.9 nM in assay [5]. Moreover, the binding result in assay [2] is “no binding (tested: 5e-7 M)”. In assay [3], the “EC50 (read off the curve)” value is roughly 4 nM.

B2: DLLBII115A05 (VHH)
VHH: EVQLVESGGGLVQPGGSLRLSCAASGFTFGSYDMSWVRRSPGKGPEWVSSINSGGGSTYYADFVKGRFTISRDNAKNTLYLQMNSLKPEDTAVYYCAADRYIRARQGDYWGAYEYDYWGQGTQVTVSS
notes: also called 115A5; DLLBII115A5
With B2, the IC50 in assay [1] stood at 22 nM; in [4], 43 nM; in assay [5], 9.1 nM. Also, the binding result in [2] is “no binding (tested: 5e-7 M)”. Further, in [3], the “EC50 (read off the curve)” value was roughly 20 nM.

B3: DLLBII133A09 (VHH, not shown: small tags and cut ends)
VHH: EVQLVESGGGLVQPGGSLRLSCAASGFTFGSYDMSWVRRSPGKGPEWVSAINSGGGSTYYADYVKGRFTISRDNAKNTLYLQMNSLKPEDTAVYYCAADRYIWARQGEYWGAYAYDYWGQGTQVTVSS
Regarding B3, the “EC50 (read off the curve)” value in assay [6] was roughly 1 nM. The binding result in [7] was “no binding (tested: log[M] -6.1 (about 8e-7 M))”.

B4: DLLBII015 (VHH, not shown: small tags and cut ends)
VHH: EVQLVESGGGLVQPGGSLRLSCAASGFTIGSYDMSWVRRSPGKGPEWVSAINSGGGSTYYADYVKGRFTISRDNAKNTLYLQMNSLKPEDTAVYYCAADRYIWARQGEYWGAYAYDYWGQGTQVTVSS
For the molecule B4, the “EC50 (read off the curve)” value in [6] is roughly 1 nM. Further, in assay [7], the binding result is “no binding (tested: log[M] -6.1 (about 8e-7 M))”.

B5: DLLBII136C07 (VHH, not shown: small tags and cut ends)
VHH: EVQLVESGGGLVQPGGSLRLSCAASGFTFGSYDMSWVRRSPGKGPEWVSSINSGGGSTYYADYVKGRFTISRDNAKNTLYLQMNSLKPEDTAVYYCAADRYIWARQGEYWGAYEYDYWGQGTQVTVSS
As to B5, in [6], the “EC50 (read off the curve)” value is roughly 1 nM. Also, the binding result in assay [7] is “no binding (tested: log[M] -6.1 (about 8e-7 M))”.

B6: DLLBII133G05 (VHH, not shown: small tags and cut ends)
VHH: EVQLVESGGGLVQPGGSLRLSCAASGFTFGSYDMSWVRRSPGKGPEWVSAINSGGGSTYYTDYVKGRFTISRDNAKNTLYLQMNSLKPEDTAVYYCAADRYIWARQGEYWGAYAYDYWGQGTQVTVSS
Turning to B6, the “EC50 (read off the curve)” value in [6] was roughly 0.4 nM. The binding result in assay [7] is “no binding (tested: log[M] -6.1 (about 8e-7 M))”.

B7: DLLBII101G08 (VHH)
VHH: EVQLVESGGGLVQAGGSLRLSCAASGRTFSSYAMAWFRQAPGKEREFVAAIRWSGGTAYYADSVQGRFTISRDNAKNTVYLQMNSLKPEDTAVYYCANRAADTRLGPYEYDYWGQGTQVTVSS
notes: also called 101G8; DLLBII101G8
With B7, the values for the IC50 in assay [1], in assay [4] and in assay [5] were 24.6 nM, 92.1 nM and 9.5 nM, respectively. In [2], the binding result is “no binding (tested: 5e-7 M)”. Also, in [3], the “EC50 (read off the curve)” value is roughly 30 nM.

B8: DLLBII101G08 (VHH, not shown: small tags and cut ends)
VHH: EVQLVESGGGLVQAGGSLRLSCAASGRTFSSYAMAWFRQAPGKEREFVAAIRWSGGTAYYADSVQGRFTISRDNAKNTVYLQMNSLKPEDTAVYYCANRAADTRLGPYEYDYWGQGTQVTVSS
notes: parent VHH; also called 101G08 (wt); 101G8
The koff is the first-order rate constant of dissociation. With B8, in assay [8], the “fold (off-rate vs DLLBII101G08)” value is 1 fold and the koff came to 0.0022 s⁻¹. In assay [9], the binding result was “no binding (tested: log[M] -6.1 (about 8e-7 M))”.

B9: DLLBII129E11 (VHH, not shown: small tags and cut ends)
VHH: EVQLVESGGGLVQAGGSLRLSCAASGRTFSSYAMAWYRQAPGKEREYVAAIRWSGGTAYYADSVQGRFTISRDNAKNTVYLQMNSLKPEDTAVYYCANRAPDTRLRPYLYDYWGQGTQVTVSS
Turning to B9, in [8], the “fold (off-rate vs DLLBII101G08)” value amounted to 28 fold and the koff amounted to 8e-05 s⁻¹. Besides, the binding result in [9] was “no binding (tested: log[M] -6.1 (about 8e-7 M))”. For the same molecule, the “EC50 (read off the curve)” value in [10] is roughly 0.8 nM.

B10: DLLBII129D08 (VHH, not shown: small tags and cut ends)
VHH: EVQLVESGGGLVQAGGSLRLSCAASGRTFSSYAMAWYRQAPGKEREYVAAIRWSGGTAYYADSVQGRFTISRDNAKNTVYLQMNSLKPEDTAVYYCANRAPDTRLEPYLYDYWGQGTQVTVSS
With B10, in assay [8], the “fold (off-rate vs DLLBII101G08)” value came out at 38 fold and the off-rate (koff) was 5.9e-05 s⁻¹. Further, in [9], the binding result was “no binding (tested: log[M] -6.1 (about 8e-7 M))”. Also, the “EC50 (read off the curve)” value in assay [10] is roughly 0.8 nM.

B11: DLLBII129B05 (VHH, not shown: small tags and cut ends)
VHH: EVQLVESGGGLVQAGGSLRLSCAASGRTFSSYAMAWYRQAPGKEREYVAAIRWSGGTAYYADSVQGRFTISRDNAKNTVYLQMNSLKPEDTAVYYCANRAPDTRLAPYEYDHWGQGTQVTVSS
As to B11, in assay [8], the “fold (off-rate vs DLLBII101G08)” value was found to be 24 fold and the koff worked out at 9.3e-05 s⁻¹. The binding result in assay [9] is “no binding (tested: log[M] -6.1 (about 8e-7 M))”. Besides, the “EC50 (read off the curve)” value in [10] is roughly 0.8 nM.
